B1: CXCL4 (ligand)
chain: EAEEDGDLQCLCVKTTSQVRPRHITSLEVIKAGPHCPTAQLIATLKNGRKICLDLQAPLYKKIIKKLLES
B2: CXCL13 (ligand)
chain: VLEVYYTSLRCRCVQESSVFIPRRFIDRIQILPRGNGCPRKEIIVWKKNKSIVCVDPQAEWIQRMMEVLRKRSSSTLPVPVFKRKIP
B3: CXCL11 (ligand)
chain: FPMFKRGRCLCIGPGVKAVKVADIEKASIMYPSNNCDKIEVIITLKENKGQRCLNPKSKQARLIIKKVERKNF

Assays:
Assay in all cases: BLI
CXCL1 = CXCL1 (human, UniProt P09341 35-107)
CXCL5 = CXCL5 (human)
[1] = target: CXC-motif chemokine ligand 10 (CXCL10) (human, UniProt P02778 22-98)
CXCL13 = target: B2
CXCL3 = CXCL3 (human, UniProt P19876 35-107)
CXCL2 = CXCL2 (human, UniProt P19875 35-107)
CXCL11 = target: B3
CXCL6 = CXCL6 (human)
CXCL12 = CXCL12 (human, UniProt P48061 22-93)
CXCL4 = target: B1
CXCL7 = target: T1, CXCL7 (human)
T1 chain: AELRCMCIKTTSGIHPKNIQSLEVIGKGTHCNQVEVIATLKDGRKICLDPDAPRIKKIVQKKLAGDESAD

CXCL8 = CXCL8 (human)
Sequence of CXCL8 (human) (chain, as listed by the source): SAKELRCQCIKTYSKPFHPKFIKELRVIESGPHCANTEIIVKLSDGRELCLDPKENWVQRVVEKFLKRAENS

P1074_IXORI = P1074_IXORI (Ixodes ricinus, UniProt A0A0K8RDH6 29-96)

Binder | Kd (CXCL1) [nM] | Kd (CXCL5) [nM] | Kd [1] [nM] | Kd (CXCL13) [nM] | Kd (CXCL3) [nM] | Kd (CXCL2) [nM] | Kd (CXCL11) [nM] | Kd (CXCL6) [nM] | Kd (CXCL12) [nM] | Kd (CXCL4) [nM] | Kd (CXCL7) [nM] | Kd (CXCL8) [nM] | Kd (P1074_IXORI) [nM]
P1090_IXORI (natural protein) GSKELSGPESSENSIEAAFCDTNCTEGTDGVWSGCSAGCFCVHVGNSTVGRCMTFNGVD | 3.55 | 43 | 23.9 | 12.5 | 7.67 | 3.03 | 3.85 | 2.82 | – | – | – | – | –
P1124_IXORI (natural protein) DSKGTSDSQDSTKSIKVDFCETNCTKTDGGWTGCTGDCICVSVGDSIEGRCMDFG | 7.61 | 26.4 | – | 256 | 8.84 | 13.8 | – | – | 212 | – | – | – | –
P942 (natural protein, also: glycosylated) DGGNQLSGPQSSANSNEAVFCDTNCTQGTDEAWSGCRGDCFCVYVGNSTEGRCMMLSGDFDYSTPGAED | 3.09 | 21.1 | 133 | 39.5 | 5.04 | 6.48 | 12.4 | 7.28 | – | 148 | – | – | –
P1142 (natural protein, glycosylated (periodic acid–Schiff staining)) DGGKPQILQRTDHSTDSDWDPQMCPETCNPSKNISCSSECLCVTLGGGDETGTCFNMSGVDWLGHAQASDGHNDGGGASAWSHPQFEKLEHHHHHHHH | 4.61 | 9.81 | 7.46 | – | 5.65 | 2.14 | 322 | 6.27 | – | 381 | 1.83 | – | –
P1172_IXORI (natural protein) FLLKSQLCYCLFGIELIGAGIHALHEDEIFTVDYCGTNCTKQSNGSWTTCPGNCSCYHEDGKTDGFCLSTEYTDFTQFPNLTSEEMDAATPRPE | 5.59 | 59.3 | – | – | – | 26 | – | – | – | – | – | 26.7 | –
P1078_IXORI (natural protein) GSKGSSAQQSSHDSIKAEFCETNCTMKTGGKWTQCHGGCFCVHVGNETVGRCIKLDGDYDYPSSKHEE | 6.35 | 39.2 | – | 255 | 43.8 | 68.3 | 16.7 | – | – | – | – | – | –
P1104 (natural protein, also: glycosylated) ESKEASASQGPGKSFKVEFCETNCTENNGVWSGCTGDCICVSVGDSKEGRCMDLGDKVIDTPVAQG | 14.4 | 24.5 | – | 220 | 43.7 | 82.3 | – | 34.3 | 67.8 | – | – | – | –
B1 | – | – | – | – | – | – | – | – | – | – | – | – | 157
B2 | – | – | – | – | – | – | – | – | – | – | – | – | 95.8
P1170_IXORI (natural protein) LGDEDQLFSVEYCGTNCTQQDDGKWTPCSGKNGKCKCYHEDGKRYGLCLYTEYTDFSQYPNPEGSEIENTRPRP | 59.6 | – | – | – | – | – | – | – | – | – | – | 12.3 | –
P1080_IXORI (natural protein) SAGSKGSSAPQSSGDSVVAEFCDTNCTMKKDGKWTECNGDCFCVHVGNETVGRCMRLDGDYDYTSSKTTRRNKKTRNGLCRLDRNRTTVDYPERNTREP | – | 55.1 | 1260 | 1110 | 124 | – | – | 61 | – | 2310 | – | – | –
P1086_IXORI (natural protein) GSKGQRASQVSETSITAEFCDTSCTQGTDKTWSGCSGDCFCVHVGNDTEGRCMRWDGDYPSAEEEE | – | – | 18.7 | – | 15.2 | – | – | – | – | – | – | – | –
P1126 (natural protein, also: glycosylated) DGGKPQILQRTDKSTDSEWDPQTCPETCIPSKNITCSDGCVCVKLGEEEEGTCFNMTGVDWLGSPSDD | 10.5 | 12.1 | 7.9 | – | 13.3 | 5.11 | 394 | 9.12 | – | 393 | 6.05 | – | –
B3 | – | – | – | – | – | – | – | – | – | – | – | – | 12
Evasin 3 (EVA3) (natural protein, also: glycosylated) DGGLVSTIESRTSGDGADNFDVVSCNKNCTSGQNECPEGCFCGLLGQNKKGHCYKIIGNLSGEPPVVRR | 5.73 | 24.9 | – | – | 7.37 | 7.49 | – | 1.03 | – | – | – | 2.57 | –
P1134 (natural protein, glycosylated (periodic acid–Schiff staining)) NEEVFTVEYCGMNCTQKSDGTWTECSGKNKDCRCYHESDAREGLCLSTEYTDFSQFETPSNSDLEAATPRPRKTLYPVRNPHGPKTRGLGYDKRILRDRVKFLI | 27.3 | – | – | – | – | – | – | – | – | – | – | – | –
P675 (natural protein, also: glycosylated) GSNQLSGPQSSANSNDAVFCDTNCTQGTDGAWSGCRGDCFCVHVGNSTEGRCIELIGDFDYSTPGAED | 9.99 | 34.2 | 3120 | 582 | 35.7 | 24.8 | 7.73 | – | – | 422 | – | – | –
P1100_IXORI (natural protein) GSKGSSASQSSDNSVVAKFCDTNCTINEGGKWTECKGGCFCVHVGNETVGRCMKLDGDYDYPSPKPEE | 49.9 | 50.8 | 380 | – | 55.9 | – | 102 | 15.2 | – | – | – | – | –

Source: publication PMC6643034 (2019)
